± gives the uncertainty stated by the source.
B1: PMS1 protein homolog 1, residues 572 to 637; numbered along this chain, P54277 (parent)
chain: KKPMSASALFVQDHRPQFLIENPKTSLEDATLQIEELWKTLSEEEKLKYEEKATKDLERYNSQMKR

Variants of: B1
Experiment: abundance fitness (aPCA) (normalised: wild type 0, dead -1); higher = more abundant; growth selection in yeast, the domain comes from the species named
Conditions: Homo sapiens

In order of rising abundance fitness:
1. S26W  -1.3 ± 0.11
2. K46W  -1.17 ± 0.068
3. A6I  -1.17 ± 0.23
4. L9P  -0.98 ± 0.25
5. K39G  -0.875 ± 0.12
6. S42L  -0.801 ± 0.056
7. S26F  -0.775 ± 0.08
8. F10L  -0.731 ± 0.12
9. R15D  -0.729 ± 0.11
10. F10N  -0.655 ± 0.16
11. M4C  -0.627 ± 0.18
12. Y49H  -0.616 ± 0.37
13. E45F  -0.606 ± 0.16
14. L41Y  -0.59 ± 0.083
15. Y49P  -0.581 ± 0.13
16. R15P  -0.541 ± 0.14
17. Q12T  -0.54 ± 0.26
18. T40P  -0.537 ± 0.14
19. K39I  -0.535 ± 0.46
20. N61C  -0.521 ± 0.11
21. Y49A  -0.507 ± 0.1
22. K65W  -0.502 ± 0.22
23. F10D  -0.487 ± 0.2
24. P3A  -0.464 ± 0.19
25. E21D  -0.446 ± 0.24
26. K2E  -0.433 ± 0.11
27. V11I  -0.432 ± 0.23
28. F10S  -0.422 ± 0.13
29. E35Q  -0.414 ± 0.47
30. R15E  -0.409 ± 0.14
31. R15W  -0.408 ± 0.12
32. A30G  -0.401 ± 0.14
33. K46A  -0.395 ± 0.077
34. T25H  -0.395 ± 0.33
35. S7W  -0.388 ± 0.24
36. L27C  -0.384 ± 0.19
37. R15K  -0.38 ± 0.23
38. W38A  -0.369 ± 0.22
39. P3K  -0.368 ± 0.34
40. P3C  -0.358 ± 0.28
41. P16C  -0.357 ± 0.11
42. D56K  -0.353 ± 0.17
43. A6K  -0.348 ± 0.17
44. A8W  -0.347 ± 0.19
45. E44I  -0.345 ± 0.086
46. Y60M  -0.339 ± 0.15
47. K55P  -0.339 ± 0.11
48. T54P  -0.338 ± 0.079
49. R15Q  -0.336 ± 0.12
50. T31F  -0.325 ± 0.44
51. T31G  -0.321 ± 0.14
52. K2M  -0.321 ± 0.16
53. L41D  -0.319 ± 0.094
54. K48I  -0.309 ± 0.15
55. L27G  -0.308 ± 0.12
56. D56I  -0.306 ± 0.23
57. T25K  -0.302 ± 0.15
58. K52Y  -0.302 ± 0.091
59. W38F  -0.299 ± 0.17
60. K52T  -0.288 ± 0.087
61. E44F  -0.284 ± 0.11
62. S7C  -0.28 ± 0.22
63. L37C  -0.278 ± 0.42
64. F10W  -0.267 ± 0.15
65. E58P  -0.257 ± 0.073
66. L32T  -0.246 ± 0.28
67. S42R  -0.24 ± 0.051
68. Q33D  -0.24 ± 0.38
69. T40V  -0.239 ± 0.1
70. E51G  -0.237 ± 0.054
71. L47K  -0.235 ± 0.16
72. D56M  -0.231 ± 0.17
73. K52V  -0.229 ± 0.066
74. A53Y  -0.22 ± 0.089
75. K1R  -0.216 ± 0.13
76. K65C  -0.203 ± 0.24
77. E35A  -0.2 ± 0.13
78. E45R  -0.187 ± 0.068
79. Y60L  -0.186 ± 0.056
80. L47E  -0.184 ± 0.14
81. F10H  -0.183 ± 0.39
82. L32S  -0.18 ± 0.13
83. Y60A  -0.178 ± 0.091
84. Q63R  -0.178 ± 0.081
85. L37G  -0.175 ± 0.082
86. S26N  -0.167 ± 0.068
87. T54C  -0.164 ± 0.088
88. D56Q  -0.162 ± 0.15
89. P16T  -0.159 ± 0.25
90. E51S  -0.158 ± 0.049
91. M4N  -0.157 ± 0.47
92. S26K  -0.155 ± 0.067
93. E58T  -0.155 ± 0.065
94. N61A  -0.15 ± 0.07
95. L32Q  -0.15 ± 0.18
96. L41M  -0.145 ± 0.1
97. S7H  -0.144 ± 0.16
98. T25Q  -0.143 ± 0.12
99. E44Q  -0.142 ± 0.095
100. L57G  -0.14 ± 0.071
101. S7G  -0.134 ± 0.083
102. E51H  -0.131 ± 0.069
103. E51I  -0.127 ± 0.067
104. R59W  -0.126 ± 0.069
105. Q33E  -0.124 ± 0.095
106. L57V  -0.119 ± 0.051
107. Y60W  -0.117 ± 0.091
108. L32V  -0.117 ± 0.18
109. E58V  -0.108 ± 0.063
110. K46Q  -0.106 ± 0.078
111. K39Y  -0.104 ± 0.39
112. M64G  -0.103 ± 0.1
113. Y60E  -0.103 ± 0.13
114. K52A  -0.101 ± 0.1
115. S42E  -0.101 ± 0.067
116. T25L  -0.096 ± 0.092
117. K39E  -0.095 ± 0.11
118. M64F  -0.095 ± 0.15
119. N61S  -0.092 ± 0.062
120. S62R  -0.09 ± 0.11
121. T31R  -0.089 ± 0.13
122. P16E  -0.087 ± 0.11
123. E43H  -0.087 ± 0.11
124. S42A  -0.085 ± 0.064
125. S42K  -0.072 ± 0.073
126. L57E  -0.066 ± 0.067
127. S42P  -0.065 ± 0.071
128. L57R  -0.058 ± 0.062
129. K55T  -0.058 ± 0.096
130. Q33A  -0.05 ± 0.12
131. E51R  -0.048 ± 0.044
132. E58D  -0.047 ± 0.095
133. R59M  -0.046 ± 0.075
134. K55D  -0.045 ± 0.11
135. S42D  -0.045 ± 0.17
136. T40G  -0.041 ± 0.075
137. K52R  -0.041 ± 0.066
138. Y60T  -0.039 ± 0.11
139. S5E  -0.031 ± 0.13
140. E43V  -0.026 ± 0.053
141. E58R  -0.025 ± 0.053
142. L41V  -0.023 ± 0.1
143. M4L  -0.017 ± 0.096
144. T54D  -0.016 ± 0.16
145. K52Q  -0.009 ± 0.092
146. M4E  -0.002 ± 0.11
147. L47T  0.005 ± 0.16
148. K65P  0.009 ± 0.13
149. T54S  0.015 ± 0.076
150. K65Q  0.02 ± 0.11
151. L57D  0.024 ± 0.079
152. R66E  0.031 ± 0.17
153. R15F  0.035 ± 0.43
154. T54A  0.035 ± 0.071
155. Y60S  0.04 ± 0.07
156. M4Q  0.043 ± 0.12
157. N61E  0.047 ± 0.092
158. P3T  0.049 ± 0.2
159. S62K  0.049 ± 0.078
160. R66G  0.054 ± 0.11
161. K65E  0.073 ± 0.12
162. Q63N  0.075 ± 0.16
163. R66V  0.097 ± 0.069
164. S62C  0.12 ± 0.13
165. S7Q  0.176 ± 0.12
166. K1C  0.184 ± 0.43
167. L47N  0.202 ± 0.42

Reference: the Human Domainome abundance scans (Beltran et al. 2025)
